Read-outs that look alike come from different tables or passages of the source.
What was measured:
[1] = biological target: T1, mouse pKal (Mus musculus, UniProt P26262); assay: Ki,app against mouse pKal; type: biochemical; conditions: Table 15
T1 construct: active plasma kallikrein (pkal) has the single polypeptide chain cleaved at a single position
Protocol: Fourth, antibodies were tested for their ability to inhibit pKal from other species, besides human, where the amino acid sequence of pKal has been determined in order to identify amino acids that may account for the differences in inhibition.
Antibodies that inhibit the activity of pKal either bind near the active site and preclude substrate interactions (competitive inhibitors) or that bind away from the active site and induce allosteric changes in the structure of the active site (noncompetitive inhibitors).

[2] = biological target: T2, biotinylated plasma kallikrein (human pKal) (Homo sapiens, UniProt P03952); assay: Human pKal ELISA (T/B); type: binding; conditions: ELISA signal of target (biotinylated plasma kallikrein) divided by signal of background (streptavidin); Table 6
T2 construct: two disulfide linked polypeptides; a heavy chain of approximately 52 kDa and a catalytic domain of approximately 34 kDa; host or cells: human plasma
T2 sequence (P03952 391-638 limits assumed): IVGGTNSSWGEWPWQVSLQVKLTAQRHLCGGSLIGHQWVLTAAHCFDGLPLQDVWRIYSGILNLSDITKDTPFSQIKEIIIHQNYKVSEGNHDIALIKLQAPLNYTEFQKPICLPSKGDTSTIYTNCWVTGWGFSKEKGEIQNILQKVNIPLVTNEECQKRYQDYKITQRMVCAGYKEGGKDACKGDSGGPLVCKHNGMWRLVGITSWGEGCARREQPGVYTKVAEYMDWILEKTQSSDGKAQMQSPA
T2 sequence (P03952 20-390 partner limits assumed): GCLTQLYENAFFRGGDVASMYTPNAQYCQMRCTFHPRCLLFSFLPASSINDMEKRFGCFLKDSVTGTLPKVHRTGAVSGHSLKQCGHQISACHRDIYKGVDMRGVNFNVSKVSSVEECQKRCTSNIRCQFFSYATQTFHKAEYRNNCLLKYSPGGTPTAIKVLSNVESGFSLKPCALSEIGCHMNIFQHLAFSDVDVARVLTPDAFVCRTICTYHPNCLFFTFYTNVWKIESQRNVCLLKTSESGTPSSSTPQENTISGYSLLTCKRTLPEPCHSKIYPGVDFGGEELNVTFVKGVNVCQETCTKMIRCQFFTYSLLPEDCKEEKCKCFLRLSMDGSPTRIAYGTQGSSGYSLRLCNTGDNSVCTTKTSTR

[3] = biological target: T3, human plasma kallikrein (human pKal) (Homo sapiens, UniProt P03952); assay: Ki,app against human pKal by steady state enzyme kinetics (in vitro protease cleavage assay, Pro-Phe-Arg-aminomethylcoumarin substrate); type: biochemical
T3 construct: two disulfide linked polypeptides; a heavy chain of approximately 52 kDa and a catalytic domain of approximately 34 kDa; host or cells: human plasma
T3 sequence (P03952 391-638 limits assumed): as the sequence (P03952 391-638 limits assumed) above
T3 sequence (P03952 20-390 partner limits assumed): as the sequence (P03952 20-390 partner limits assumed) above
Excerpt: The inhibition constant (Ki) provides a measure of inhibitor potency; it is the concentration of inhibitor required to reduce enzyme activity by half and is not dependent on enzyme or substrate concentrations. The apparent Ki (Ki,app) is obtained at different substrate concentrations by measuring the inhibitory effect of different concentrations of inhibitor (e.g., inhibitory binding protein) on the extent of the reaction (e.g., enzyme activity); fitting the change in pseudo-first order rate constant as a function of inhibitor concentration to the Morrison equation (Equation 1) yields an estimate of the apparent Ki value. The Ki is obtained from the y-intercept extracted from a linear regression analysis of a plot of Ki,app versus substrate concentration.
Where v=measured velocity; v0=velocity in the absence of inhibitor; Ki,app=apparent inhibition constant; I=total inhibitor concentration; and E=total enzyme concentration.
The sequence of human plasma kallikrein that was used in selections and subsequent screening of binding proteins is shown below (accession number NP_000883.2). The human plasma kallikrein (86 kDa) that was used was purified from human plasma and activated with factor XIIa by a commercial vendor. Factor XIIa activates prekallikrein by cleaving the polypeptide sequence at a single site (between Arg371-Ile372, cleavage site marked by “/” in the sequence below) to generate active plasma kallikrein, which then consists of two disulfide linked polypeptides; a heavy chain of approximately 52 kDa and a catalytic domain of approximately 34 kDa [Colman and Schmaier, (1997) “Contact System: A Vascular Biology Modulator With Anticoagulant, Profibrinolytic, Antiadhesive, and Proinflammatory Attributes” Blood, 90, 3819-3843]
These antibodies were produced as Fab fragments in small scale (˜20 μg) and tested for inhibition against human pKal in an in vitro protease cleavage assay using Pro-Phe-Arg-aminomethylcoumarin as the synthetic peptide substrate. […] Five antibodies were then expressed in 293T cells and purified by protein A sepharose chromatography. The antibodies were analyzed by SDS-PAGE to determine which of the inhibitory mutants are not cleaved by the host cell protease(s) (data not shown).

[4] = biological target: T4, pKal (Homo sapiens, UniProt P03952); assay: Inhibition screening with 10 nM antibody (as Fab fragments); type: biochemical
T4 construct: two disulfide linked polypeptides; a heavy chain of approximately 52 kDa and a catalytic domain of approximately 34 kDa; host or cells: human plasma
T4 sequence (P03952 391-638 limits assumed): as the sequence (P03952 391-638 limits assumed) above
T4 sequence (P03952 20-390 partner limits assumed): as the sequence (P03952 20-390 partner limits assumed) above
Excerpt: The 82 antibodies that were discovered based on improvements in M162-A04 due to modifications in either the CDR1/2 and CDR3 region are shown in Table 12.
The 62 antibodies that were discovered based on improvements in X63-G06 due to modifications in either the CDR1/2 and CDR3 region are shown in Table 13.

[5] = Table 6, read-out: Human pKal (Ki, app nM)
[6] = Table 13, antibodies based on X63-G06
[7] = human pKal, Table 13, antibodies based on X63-G06, read-out: human pKal Ki, app

T1 sequence (P26262 391-638 limits assumed): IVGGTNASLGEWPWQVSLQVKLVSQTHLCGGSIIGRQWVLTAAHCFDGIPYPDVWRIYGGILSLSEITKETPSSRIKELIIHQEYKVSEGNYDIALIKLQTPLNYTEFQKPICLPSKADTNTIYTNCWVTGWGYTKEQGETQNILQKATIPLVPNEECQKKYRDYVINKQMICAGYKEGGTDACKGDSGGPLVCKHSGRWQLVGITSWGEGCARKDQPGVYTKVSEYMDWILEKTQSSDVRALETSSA
T1 sequence (P26262 20-390 partner limits assumed): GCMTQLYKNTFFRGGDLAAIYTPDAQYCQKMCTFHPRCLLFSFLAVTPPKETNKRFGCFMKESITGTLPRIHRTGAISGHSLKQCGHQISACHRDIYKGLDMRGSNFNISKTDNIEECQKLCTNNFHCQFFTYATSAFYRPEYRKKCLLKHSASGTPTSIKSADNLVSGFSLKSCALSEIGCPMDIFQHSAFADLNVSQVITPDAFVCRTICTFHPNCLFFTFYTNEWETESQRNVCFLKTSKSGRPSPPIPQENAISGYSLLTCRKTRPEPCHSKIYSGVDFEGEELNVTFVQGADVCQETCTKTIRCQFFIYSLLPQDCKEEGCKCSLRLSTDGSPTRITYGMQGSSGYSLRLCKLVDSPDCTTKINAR

| Molecule | Human pKal ELISA (T/B) [2] | Ki [3, 5] [nM] | % inhibition at 10 nM [4, 6] [%] | Ki [3, 7] [nM] | other results |
| --- | --- | --- | --- | --- | --- |
| M29-D09: antibody inhibitor of pKal; HV-CDR3 GSYDYIWGFYSDH (antibody, V domains shown) VL: QSALTQPPTVSVSPGQTARITCSGNKLGDKYVAWYQQKPGQSPMLVIYQDTKRPSAIPERFSGSNSANTATLSISGTQALDEADYYCQAWDSSIVIFGGGTRLTVL VH: EVQLLESGGGLVQPGGSLRLSCAASGFTFSWYTMVWVRQAPGKGLEWVSYIYPSGGATFYADSVKGRFTISRDNSKNTLYLQMNSLRAEDTAVYYCAMGSYDYIWGFYSDHWGQGTLVTVSSASTKGPSVFPLAPSSKS | – | – | – | – | mouse Ki, app (nM) [1]: no |
| M12-D05: antibody inhibitor of pKal; HV-CDR3 EGLLWFGENAFDI (antibody, V domains shown) VL: QSVLTQPPSVSVSPGQTATITCSGDQLGDKYVGWYQQKPGQSPILVIYQDTKRPSGIPERFSGSNSGNTATLTISGTHTVDEAHYYCQAWDTSTAGFGGGTKLTVL VH: EVQLLESGGGLVQPGGSLRLSCAASGFTFSWYTMVWVRQAPGKGLEWVSRIYPSGGWTKYADSVKGRFTISRDNSKNTLYLQMNSLRAEDTATYYCAREGLLWFGENAFDIWGQGTMVTVSSASTKGPSVFPLAPSSKS | 48.5 | 5.2 | – | – | – |
| M28-B11: antibody inhibitor of pKal; HV-CDR3 EGLLWFGENAFDI (antibody, V domains shown) VL: QSVLTQPPSVSVSPGQTATITCSGDQLGDKYVGWYQQKPGQSPILVIYQDTKRPSGIPERFSGSNSGNTATLTISGTHTVDEAHYYCQAWDTSTAGFGGGTKLTVL VH: EVQLLESGGGLVQPGGSLRLSCAASGFTFSWYTMVWVRQAPGKGLEWVSRIYPSGGWTKYADSVKGRFTISRDNSKNTLYLQMNSLRAEDTATYYCAREGLLWFGENAFDIWGQGTMVTVSSASTKGPSVFPLAPSSKS | 33.3 | 5.5 | – | – | – |
| M210-C12 (antibody, V domains shown) VL: QDIQMTQSPGTLSLSPGERATLSCRTSQFVNSNYLAWYQQTPGQAPRLLIYGASSRATGIPDRFSGTGYGTDFTLTISRLEPEDYGTYYCQQSSRTPWTFGQGTRVEIK VH: EVQLLESGGGLVQPGGSLRLSCAASGFTFSHYLMTWVRQAPGKGLEWVSYISPSGGHTIYADSVKGRFTISRDNSKNTLYLQMNSLRAEDTAVYYCARVAQGIAARSRTSSVDQWGQGTLVTVSSASTKGPSVFPLAPSSKS | – | – | 95.6 | 0.16 | – |
| M209-F04 (antibody, V domains shown) VL: QDIQMTQSPGTLSLSPGERATLSCRTSQFVNSNYLAWYQQTPGQAPRLLIYGASSRATGIPDRFSGTGYGTDFTLTISRLEPEDYGTYYCQQSSRTPWTFGQGTRVEIK VH: EVQLLESGGGLVQPGGSLRLSCAASGFTFSHYLMTWVRQAPGKGLEWVSYISPSGGHTIYADSVKGRFTISRDNSKNTLYLQMNSLRAEDTAVYYCARVARGIAARSRTSYLDQWGQGTLVTVSSASTKGPSVFPLAPSSKS | – | – | 97.6 | 0.09 | – |
| M206-F01 (antibody, V domains shown) VL: QDIQMTQSPGTLSLSPGERATLSCRTSQFVNSNYLAWYQQTPGQAPRLLIYGASSRATGIPDRFSGTGYGTDFTLTISRLEPEDYGTYYCQQSSRTPWTFGQGTRVEIK VH: EVQLLESGGGLVQPGGSLRLSCAASGFTFSGYMMVWVRQAPGKGLEWVSRISPSGGPTIYADSVKGRFTISRDNSKNTLYLQMNSLRAEDTAVYYCARVARGIAARSRTSYFDYWGQGTLVTVSSASTKGPSVFPLAPSSKS | – | – | 92.6 | 0.2 | – |
| M137-E12: antibody inhibitor of pKal; HV-CDR3 … (antibody, V domains shown) VL: QSVLIQPPSVSGIPGQRVTISCSGNNSNFGSNTVTWYQQLPGTAPKLLIYSDSRRPSGVPDRFSGSRSDTSASLAISGLQSEDEAEYHCAAWDDSLNGVFGGGTKLTVL VH: EVQLLESGGGLVQPGGSLRLSCAASGFTFSDYRMQWVRQAPGKGLEWVSVIVPSGGNTMYADSVKGRFTISRDNSKNTLYLQMNSLRAEDTAVYYCARGGPGSSIAARRAPTGYYGMDVWGQGTTVTVSSASTKGPSVFPLAPSSKS | 4.5 | 79 | – | – | – |
| M202-A12 (antibody, V domains shown) VL: QDIQMTQSPSTLSASVGDRVTITCRASQSISSWLAWYQQKPGKAPNLLIYKASTLESGVPSRFSGSGSGTEFTLTISSLQPDDFATYYCQQYNTYWTFGQGTKVEIK VH: EVQLLESGGGLVQPGGSLRLSCAASGFTFSHYIMMWVRQAPGKGLEWVSGIYSSGGITVYADSVKGRFTISRDNSKNTLYLQMNSLRAEDTAVYYCAYQRTGVPRRDSFNIWGQGTMVTVSSASTKGPSVFPLAPSSKS | – | – | – | – | % inhibition at 10 nM ([4]; Table 12, antibodies based on M162-A04): 97.5%; Ki ([3]; human pKal, Table 12, antibodies based on M162-A04, read-out: human pKal Ki, app): 0.2 nM |
